# Laboratory results: patent US20250188166A1 (BRIGHT PEAK THERAPEUTICS, published 2025)
# Where “and” joins values, the source holds several entries; their conditions need not be identical. Identical values can stand only once.
# T1: IL-18R on HEK-Blue IL18R reporter cells (UniProt Q13478 19-541; O95256 20-599)
# T1 sequence (looked up) 1: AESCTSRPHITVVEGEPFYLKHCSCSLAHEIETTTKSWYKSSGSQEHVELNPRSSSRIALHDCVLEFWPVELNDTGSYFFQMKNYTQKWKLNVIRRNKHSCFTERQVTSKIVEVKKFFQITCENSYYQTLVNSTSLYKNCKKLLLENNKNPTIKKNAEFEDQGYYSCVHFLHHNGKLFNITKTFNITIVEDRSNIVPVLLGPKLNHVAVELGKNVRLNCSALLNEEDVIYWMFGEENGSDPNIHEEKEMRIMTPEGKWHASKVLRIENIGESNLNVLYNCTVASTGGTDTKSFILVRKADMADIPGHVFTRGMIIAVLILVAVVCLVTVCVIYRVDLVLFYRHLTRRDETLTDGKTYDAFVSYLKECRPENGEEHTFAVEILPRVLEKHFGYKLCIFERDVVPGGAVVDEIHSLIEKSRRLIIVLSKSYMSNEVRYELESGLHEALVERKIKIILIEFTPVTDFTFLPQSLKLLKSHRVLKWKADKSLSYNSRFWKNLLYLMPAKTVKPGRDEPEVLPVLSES
# T1 sequence (looked up) 2: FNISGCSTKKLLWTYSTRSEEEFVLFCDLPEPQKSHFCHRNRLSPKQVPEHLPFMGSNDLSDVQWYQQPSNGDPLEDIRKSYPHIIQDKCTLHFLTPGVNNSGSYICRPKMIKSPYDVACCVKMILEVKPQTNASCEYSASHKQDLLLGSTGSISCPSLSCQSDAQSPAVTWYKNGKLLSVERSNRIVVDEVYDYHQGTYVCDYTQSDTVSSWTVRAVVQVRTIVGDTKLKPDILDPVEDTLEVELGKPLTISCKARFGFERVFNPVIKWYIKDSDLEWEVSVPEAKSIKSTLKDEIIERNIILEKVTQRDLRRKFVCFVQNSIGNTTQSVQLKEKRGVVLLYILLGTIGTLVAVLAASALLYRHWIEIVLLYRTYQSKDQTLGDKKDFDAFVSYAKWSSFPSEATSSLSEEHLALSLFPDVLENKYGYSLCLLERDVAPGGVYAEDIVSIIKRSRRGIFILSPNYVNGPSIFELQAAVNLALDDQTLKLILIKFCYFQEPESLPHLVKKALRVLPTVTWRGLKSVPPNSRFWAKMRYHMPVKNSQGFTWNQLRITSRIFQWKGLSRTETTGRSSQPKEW
# Target: T1, IL-18R on HEK-Blue IL18R reporter cells
# Assay: cell-based or functional assay
row,Binder,"EC50, HEK-Blue IL18R SEAP reporter"
1,IL-18 polypeptide C181 (ligand) YFGKLKSKLSIIRNLNDQVLFIDQGNRPLFEDMTDSDARDNAPRTIFIISMYADSQPRGMAVAISVKCEKISTLSAENKIISFKEMNPPDNIKDTKSDIIFFQRSVPGHDNKMQFESSSYEGYFLAAEKERDLFKLILKKEDELGDRSIMFTEQNED,0.1 pM
2,"IL-18 polypeptide SEQ ID NO: 62 (E6K, C38A, K53A, C127A) (ligand) YFGKLKSKLSVIRNLNDQVLFIDQGNRPLFEDMTDSDARDNAPRTIFIISMYADSQPRGMAVTISVKCEKISTLSCENKIISFKEMNPPDNIKDTKSDIIFFQRSVPGHDNKMQFESSSYEGYFLAAEKERDLFKLILKKEDELGDRSIMFTVQNED",0.17 pM
3,IL-18 polypeptide C182 (ligand) YFGKLKSKLSIIRNLNDQVLFIDQGNRPLFEDMTDSDARDNAPRTIFIISMYADSQPRGMAVAISVKCEKISTLSAENKIISFKEMNPPDNIKDTKSDIIFFQRSVPGHDNKMQFESSSYEGYFLAAEKERDLFKLILKKEDELGDRSIMFTYQNED,0.08 pM
4,IL-18 polypeptide C184 (ligand) YFGKLRSKLSIIRNLNDQVLFIDQGNRPLFEDMTDSDARDNAPRTIFIISMYADSQPRGMAVAISVKCEKISTLSAENKIISFKEMNPPDNIKDTKSDIIFFQRSVPGHDNKMQFESSSYEGYFLAAEKERDLFKLILKKEDELGDRSIMFTVQNED,0.04 pM
5,IL-18 polypeptide C179 (ligand) YFGKLKSELSIIRNLNDQVLFIDQGNRPLFEDMTDSDARDNAPRTIFIISMYADSQPRGMAVAISVKCEKISTLSAENKIISFKEMNPPDNIKDTKSDIIFFRRSVPGHDNKMQFESSSYEGYFLAAEKERDLFKLILKKEDELGDRSIMFTVQNED,0.4 pM
6,"IL-18 polypeptide SEQ ID NO: 56 (E6K, K53A, C38S, C76S, C127S) (ligand) YFGKLKSKLSVIRNLNDQVLFIDQGNRPLFEDMTDSDSRDNAPRTIFIISMYADSQPRGMAVTISVKCEKISTLSSENKIISFKEMNPPDNIKDTKSDIIFFQRSVPGHDNKMQFESSSYEGYFLASEKERDLFKLILKKEDELGDRSIMFTVQNED",3.73 pM
7,"IL-18 polypeptide SEQ ID NO: 59 (E6K, C38A, K53A) (ligand) YFGKLKSKLSVIRNLNDQVLFIDQGNRPLFEDMTDSDARDNAPRTIFIISMYADSQPRGMAVTISVKCEKISTLSCENKIISFKEMNPPDNIKDTKSDIIFFQRSVPGHDNKMQFESSSYEGYFLACEKERDLFKLILKKEDELGDRSIMFTVQNED",0.268 pM
8,IL-18 polypeptide C166 (ligand) YFGKLESKLSIIRNLNDQVLFIDQGNRPLFEDMTDSDARDNAPRTIFIISMYKDTQPRGMAVTISVKCEKISTLSAENKIISFKEMNPPDNIKDTKSDIIFFQRSVPGHDNKMQFESSSYEGYFLAAEKERDLFKLILKKEDELGDRSIMFTVQNED,4.73 pM
9,"IL-18 polypeptide SEQ ID NO: 57 (E6K, C38S, K53A) (ligand) YFGKLKSKLSVIRNLNDQVLFIDQGNRPLFEDMTDSDSRDNAPRTIFIISMYADSQPRGMAVTISVKCEKISTLSCENKIISFKEMNPPDNIKDTKSDIIFFQRSVPGHDNKMQFESSSYEGYFLACEKERDLFKLILKKEDELGDRSIMFTVQNED",0.86 pM and 0.53 pM
10,"IL-18 polypeptide SEQ ID NO: 50 (E06K, K53A, T63A) (ligand) YFGKLKSKLSVIRNLNDQVLFIDQGNRPLFEDMTDSDCRDNAPRTIFIISMYADSQPRGMAVAISVKCEKISTLSCENKIISFKEMNPPDNIKDTKSDIIFFQRSVPGHDNKMQFESSSYEGYFLACEKERDLFKLILKKEDELGDRSIMFTVQNED",1.77 pM
11,IL-18 polypeptide C168 (ligand) YFGKLESKLSIIRNLNDQVLFIDQGNRPLFEDMTDSDARDNAPRTIFIISMYKDSQPRGMAVTISVKCEKISTLSAENKIISFKEMNPPDNIKDTKSDIIFFQRKVPGHDNKMQFESSSYEGYFLAAEKERDLFKLILKKEDELGDRSIMFTVQNED,7.73 pM
12,"IL-18 polypeptide SEQ ID NO: 34 (E06K, K53A, S55A) (ligand) YFGKLKSKLSVIRNLNDQVLFIDQGNRPLFEDMTDSDCRDNAPRTIFIISMYADAQPRGMAVTISVKCEKISTLSCENKIISFKEMNPPDNIKDTKSDIIFFQRSVPGHDNKMQFESSSYEGYFLACEKERDLFKLILKKEDELGDRSIMFTVQNED",272 pM
13,IL-18 polypeptide C177 (ligand) YFGKLKSKLSIIRNLNDQVLFIDQGNRPLFEDMTDSDARDNAPRTIFIRSMYADSQPRGMAVAISVKCEKISTLSAENKIISFKEMNPPDNIKDTKSDIIFFQRSVPGHDNKMQFESSSYEGYFLAAEKERDLFKLILKKEDELGDRSIMFTVQNED,0.04 pM
14,"IL-18 polypeptide SEQ ID NO: 60 (E6K, C38Q, K53A) (ligand) YFGKLKSKLSVIRNLNDQVLFIDQGNRPLFEDMTDSDQRDNAPRTIFIISMYADSQPRGMAVTISVKCEKISTLSCENKIISFKEMNPPDNIKDTKSDIIFFQRSVPGHDNKMQFESSSYEGYFLACEKERDLFKLILKKEDELGDRSIMFTVQNED",0.203 pM
15,IL-18 polypeptide C178 (ligand) YFGKLKSKLSIIRNLNDQVLFIDQGNRPLFEDMTDSDARDNAPRTIFIISMYADSQPRGMAVAISVKCEKISTLSAENKIISFKEMNPPDNIKDTKSDIIFFRRSVPGHDNKMQFESSSYEGYFLAAEKERDLFKLILKKEDELGDRSIMFTVQNED,0.26 pM
16,IL-18 polypeptide C174 (ligand) YFGKLKSLLSIIRNLNDQVLFIDQGNRPLFEDMTDSDARDNAPRTIFIISMYADSQPRGMAVAISVKCEKISTLSAENKIISFKEMNPPDNIKDTKSDIIFFQRSVPGHDNKMQFESSSYEGYFLAAEKERDLFKLILKKEDELGDRSIMFTVQNED,0.29 pM

# Continued, values first:
row,"EC50, HEK-Blue IL18R SEAP reporter",Binder
1,1.91 pM,IL-18 polypeptide C165 (ligand) YFGKLESKLSIIRNLNDQVLFIDQGNRPLFEDMTDSDARDNAPRTIFIISMYKDRQPRGMAVTISVKCEKISTLSAENKIISFKEMNPPDNIKDTKSDIIFFQRSVPGHDNKMQFESSSYEGYFLAAEKERDLFKLILKKEDELGDRSIMFTVQNED
2,0.1 pM,IL-18 polypeptide C183 (SEQ ID NO: 69) (ligand) YFGKLKSKLSIIRNLNDQVLFIDQGNRPLFEDMTDSDARDNAPRTIFIISGYADSQPRGMAVAISVKCEKISTLSAENKIISFKEMNPPDNIKDTKSDIIFFQRSVPGHDNKMQFESSSYEGYFLAAEKERDLFKLILKKEDELGDRSIMFTVQNED
3,0.07 pM,IL-18 polypeptide C176 (ligand) YFGKLKSKLSIIRNLNDQVLFIDQGNRPLFEDMTDSDARDNAPRTIFIMSMYADSQPRGMAVAISVKCEKISTLSAENKIISFKEMNPPDNIKDTKSDIIFFQRSVPGHDNKMQFESSSYEGYFLAAEKERDLFKLILKKEDELGDRSIMFTVQNED
4,0.79 pM,"IL-18 polypeptide SEQ ID NO: 42 (E06K, K53A, S55A, T63A) (ligand) YFGKLKSKLSVIRNLNDQVLFIDQGNRPLFEDMTDSDCRDNAPRTIFIISMYADAQPRGMAVAISVKCEKISTLSCENKIISFKEMNPPDNIKDTKSDIIFFQRSVPGHDNKMQFESSSYEGYFLACEKERDLFKLILKKEDELGDRSIMFTVQNED"
5,5.37 pM,IL-18 polypeptide C167 (ligand) YFGKLESKLSIIRNLNDQVLFIDQGNRPLFEDMTDSDARDNAPRTIFIISMYKDSQPRGMAVTISVKCEKISTLSAENKIISFKEMNPPDNIKDTKSDIIFFQRIVPGHDNKMQFESSSYEGYFLAAEKERDLFKLILKKEDELGDRSIMFTVQNED
6,9.12 pM,"IL-18 polypeptide SEQ ID NO: 54 (E06K, K53A, C38S, C68S, C76S, C127S, K70C) (ligand) YFGKLKSKLSVIRNLNDQVLFIDQGNRPLFEDMTDSDSRDNAPRTIFIISMYADSQPRGMAVTISVKSECISTLSSENKIISFKEMNPPDNIKDTKSDIIFFQRSVPGHDNKMQFESSSYEGYFLASEKERDLFKLILKKEDELGDRSIMFTVQNED"
7,2.5 pM,IL-18 polypeptide C140 (SEQ ID NO: 72) (ligand) GGGGYFGKLKSKLSIIRNLNDQVLFIDQGNRPLFEDMTDSDARDNAPRTIFIISMYADSQPRGMAVAISVKCEKISTLSAENKIISFKEMNPPDNIKDTKSDIIFFQRSVPGHDNKMQFESSSYEGYFLAAEKERDLFKLILKKEDELGDRSIMFTVQNED
